The text below walks through data of PMC7447634, “KIN10 promotes stomatal development through stabilization of the [sequence] transcription factor” (Nature Communications, 2020).

This assay addresses T1, maltose-binding protein (MBP)-KIN10 (Arabidopsis thaliana, UniProt Q38997-2 1-512).
T1 construct: KIN10, catalytic alpha subunit of SnRK1, Arabidopsis thaliana; full-length cDNA without stop codon in pMAL2CGW (N-MBP); also called KIN10-MBP; source: bacteria (Escherichia coli), purified (amylose resin); not shown: MBP, N-terminal, kept
T1 sequence (looked up): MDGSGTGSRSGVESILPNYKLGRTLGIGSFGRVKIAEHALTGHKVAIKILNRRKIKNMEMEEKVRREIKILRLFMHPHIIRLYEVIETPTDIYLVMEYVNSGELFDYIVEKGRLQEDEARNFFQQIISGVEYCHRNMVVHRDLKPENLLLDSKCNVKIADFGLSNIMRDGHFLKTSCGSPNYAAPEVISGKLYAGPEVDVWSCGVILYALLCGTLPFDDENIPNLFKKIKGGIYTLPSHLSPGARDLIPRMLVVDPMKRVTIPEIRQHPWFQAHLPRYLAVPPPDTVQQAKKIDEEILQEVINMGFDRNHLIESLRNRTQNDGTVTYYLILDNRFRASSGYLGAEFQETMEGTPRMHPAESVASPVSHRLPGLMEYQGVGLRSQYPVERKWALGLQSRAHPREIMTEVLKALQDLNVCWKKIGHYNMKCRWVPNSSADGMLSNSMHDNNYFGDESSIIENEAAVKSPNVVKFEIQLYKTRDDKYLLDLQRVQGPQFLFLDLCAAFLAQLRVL
Nature of the assay: pull-down; 1 µg GST-SPCH bound to glutathione agarose beads incubated with 1 µg MBP or MBP-KIN10; 20 mM Tris-HCl pH 7.5, 100 mM NaCl, 1 mM EDTA, 4 °C, 1 h; washed with 300 mM NaCl, 0.1% Nonidet P-40; blot with anti-MBP. The settings on record: both partners purified.

B1: glutathione S-transferase (GST)-SPCH (natural protein, Arabidopsis thaliana, UniProt Q700C7 1-364, looked up)
chain: MQEIIPDFLEECEFVDTSLAGDDLFAILESLEGAGEISPTAASTPKDGTTSSKELVKDQDYENSSPKRKKQRLETRKEEDEEEEDGDGEAEEDNKQDGQQKMSHVTVERNRRKQMNEHLTVLRSLMPCFYVKRGDQASIIGGVVEYISELQQVLQSLEAKKQRKTYAEVLSPRVVPSPRPSPPVLSPRKPPLSPRINHHQIHHHLLLPPISPRTPQPTSPYRAIPPQLPLIPQPPLRSYSSLASCSSLGDPPPYSPASSSSSPSVSSNHESSVINELVANSKSALADVEVKFSGANVLLKTVSHKIPGQVMKIIAALEDLALEILQVNINTVDETMLNSFTIKIGIECQLSAEELAQQIQQTFC
notes: full-length cDNA without stop codon in pDEST15 (N-GST); source: bacteria, purified (glutathione beads); not shown: GST, N-terminal, kept
Regarding B1, the binding result is on record as “binds”.
